Test results reported in the supplement of paper PMC9876800.

System: peptide library, one residue held at a place counted from the S/T acceptor
Assay: relative phosphorylation of the sub-library (ratio to the mean residue at this position); higher = residue favoured
Procedure, shortened: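 Purified recombinant kinases, either human or orthologue constructs, were incubated in 384-well plates with biotinylated degenerate peptide sub-libraries. Each sub-library fixed one residue at one position around a central Ser/Thr. Peptides at 50 μM and 50 μM ATP spiked with γ-32P-ATP were used for 90 min under kinase-specific conditions, and spots on streptavidin membranes were phosphorimaged and quantified by densitometry. Relative sub-library phosphorylation is expressed as a ratio to the mean residue at that position.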

Chain of PRKD2, construct: Full length, human (Q9BZL6 whole entry, looked up): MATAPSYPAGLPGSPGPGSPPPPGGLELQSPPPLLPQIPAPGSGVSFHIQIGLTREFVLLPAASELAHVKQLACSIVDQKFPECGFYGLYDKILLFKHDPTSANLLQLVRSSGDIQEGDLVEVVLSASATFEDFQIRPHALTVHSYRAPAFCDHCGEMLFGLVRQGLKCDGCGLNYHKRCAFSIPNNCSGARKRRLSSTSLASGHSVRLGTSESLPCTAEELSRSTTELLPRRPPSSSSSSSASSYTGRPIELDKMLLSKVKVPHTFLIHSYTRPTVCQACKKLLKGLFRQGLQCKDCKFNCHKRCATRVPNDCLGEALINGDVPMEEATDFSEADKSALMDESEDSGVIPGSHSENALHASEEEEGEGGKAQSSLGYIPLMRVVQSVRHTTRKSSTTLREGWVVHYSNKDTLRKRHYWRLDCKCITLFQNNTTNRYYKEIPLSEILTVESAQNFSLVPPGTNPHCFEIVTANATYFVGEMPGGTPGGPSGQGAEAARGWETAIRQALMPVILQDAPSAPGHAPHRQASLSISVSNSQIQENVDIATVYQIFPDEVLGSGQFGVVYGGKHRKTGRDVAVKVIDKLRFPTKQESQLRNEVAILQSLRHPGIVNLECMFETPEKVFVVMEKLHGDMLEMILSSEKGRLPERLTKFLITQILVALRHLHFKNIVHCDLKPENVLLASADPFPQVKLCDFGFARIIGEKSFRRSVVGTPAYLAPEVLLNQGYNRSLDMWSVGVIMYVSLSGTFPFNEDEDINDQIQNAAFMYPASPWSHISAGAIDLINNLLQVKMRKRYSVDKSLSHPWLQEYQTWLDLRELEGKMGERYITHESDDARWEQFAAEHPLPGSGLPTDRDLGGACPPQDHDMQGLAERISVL
Chain of PRKG2, construct: Full length, human (Q13237 whole entry, looked up): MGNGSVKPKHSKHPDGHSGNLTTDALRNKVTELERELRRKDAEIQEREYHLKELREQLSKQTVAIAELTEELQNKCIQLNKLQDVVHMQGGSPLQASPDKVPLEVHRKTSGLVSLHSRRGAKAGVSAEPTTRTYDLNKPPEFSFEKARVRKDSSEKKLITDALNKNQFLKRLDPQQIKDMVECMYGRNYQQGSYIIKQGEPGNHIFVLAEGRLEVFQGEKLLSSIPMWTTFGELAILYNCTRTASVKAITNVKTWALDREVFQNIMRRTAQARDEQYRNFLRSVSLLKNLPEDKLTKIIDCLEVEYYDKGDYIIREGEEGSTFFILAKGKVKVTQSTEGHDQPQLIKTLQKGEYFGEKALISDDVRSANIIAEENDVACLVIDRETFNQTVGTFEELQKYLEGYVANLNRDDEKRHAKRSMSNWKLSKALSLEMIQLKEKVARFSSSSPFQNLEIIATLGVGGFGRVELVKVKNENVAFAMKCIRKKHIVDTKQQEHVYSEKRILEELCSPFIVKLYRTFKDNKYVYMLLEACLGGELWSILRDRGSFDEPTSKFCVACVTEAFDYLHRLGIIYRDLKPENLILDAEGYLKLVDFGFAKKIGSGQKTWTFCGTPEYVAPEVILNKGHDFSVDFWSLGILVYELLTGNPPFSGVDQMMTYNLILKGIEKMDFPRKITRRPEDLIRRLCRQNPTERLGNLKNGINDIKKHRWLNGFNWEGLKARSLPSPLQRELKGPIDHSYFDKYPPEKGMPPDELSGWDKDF

PRKCE, construct: Full length, human (from UniProt Q02156)
relative phosphorylation
Conditions	at +1	at +2	at +3	at +4	at -1	at -2	at -3	at -4	at -5
A fixed	0.507	0.48	0.795	0.905	1.06	0.774	0.669	1.12	1.16
D fixed	0.169	0.162	0.342	0.375	0.373	0.296	0.223	0.455	0.383
E fixed	0.165	0.138	0.347	0.334	0.312	0.308	0.235	0.558	0.35
F fixed	1.7	0.528	0.831	0.561	0.588	0.69	0.691	0.783	1.28
G fixed	0.525	0.366	1.01	0.967	1.59	0.908	0.731	1.08	1.05
H fixed	0.66	1.02	1.25	1.16	0.936	1.1	1.09	1.16	1.12
I fixed	1.43	0.515	0.619	0.6	0.44	0.393	0.435	0.689	0.935
K fixed	2.1	4.18	2.99	3.19	2.52	2.35	2.17	2.11	1.67
L fixed	1.15	0.441	0.746	0.567	0.679	0.425	0.466	0.639	0.934
M fixed	1.18	0.566	0.581	0.62	0.813	0.528	0.545	0.833	0.744
N fixed	0.577	0.501	0.661	0.921	0.997	0.834	0.552	0.822	0.665
P fixed	0.473	0.357	0.604	1.07	1.21	0.623	0.708	0.919	0.921
Q fixed	1.01	0.543	0.7	0.931	0.949	0.957	0.64	0.894	0.753
R fixed	2.4	4.74	3.01	2.59	2.49	4.46	5.89	2.3	1.93
V fixed	1.32	0.537	0.67	0.634	0.611	0.529	0.413	0.808	0.757
W fixed	0.717	0.516	0.891	0.961	0.471	1.12	0.613	1.02	1.39
Y fixed	0.928	1.4	0.95	0.607	0.968	0.701	0.934	0.82	0.956
pThr fixed	0.851	0.471	0.573	0.688	0.378	0.561	0.657	0.799	0.932
pTyr fixed	0.505	0.525	0.731	0.569	0.528	0.535	0.678	0.625	0.989

PRKCI, construct: Full length, human (from UniProt P41743)
relative phosphorylation
Conditions	at +1	at +2	at +3	at +4	at -1	at -2	at -3	at -4	at -5
A fixed	0.617	0.488	0.873	0.871	1.13	0.692	0.835	1.12	1
D fixed	0.136	0.156	0.275	0.43	0.343	0.184	0.208	0.464	0.499
E fixed	0.134	0.152	0.277	0.378	0.317	0.197	0.23	0.464	0.425
F fixed	1.85	0.543	0.961	0.688	0.607	0.995	1.06	0.998	1.39
G fixed	0.617	0.557	0.946	1.07	1.4	0.883	0.846	1.04	1.02
H fixed	0.755	1.42	1.24	1.2	0.896	1.17	1.01	1.1	1.05
I fixed	1.34	0.654	0.855	0.926	0.35	0.447	0.543	0.782	0.792
K fixed	1.93	2.63	2.28	2.33	2.57	1.52	1.86	1.71	1.71
L fixed	1.18	0.538	0.882	0.716	0.617	0.601	0.745	0.761	1.13
M fixed	1.74	0.873	0.722	0.745	1.02	0.878	0.915	0.883	0.814
N fixed	0.58	0.59	0.598	0.765	0.921	0.768	0.579	0.899	0.771
P fixed	0.445	0.401	0.699	1.11	0.731	0.423	0.603	0.75	0.79
Q fixed	0.79	0.655	0.659	0.863	1.12	0.813	0.698	0.859	0.788
R fixed	2.23	5.01	2.67	2.07	2.73	4.2	4.14	1.78	1.76
V fixed	1.04	0.643	0.792	0.774	0.607	0.478	0.655	0.935	0.89
W fixed	0.696	0.658	1.14	1.14	0.637	1.02	1.01	1.53	1.22
Y fixed	0.92	1.04	1.15	0.923	0.993	1.73	1.06	0.926	0.948
pThr fixed	0.598	0.355	0.444	0.621	0.312	0.388	0.638	0.775	0.716
pTyr fixed	0.324	0.334	0.539	0.442	0.309	0.349	0.391	0.388	0.599

PRKD2, construct: Full length, human (from UniProt Q9BZL6)
relative phosphorylation
Conditions	at +1	at +2	at +3	at +4	at -1	at -2	at -3	at -4	at -5
A fixed	0.733	0.998	0.83	0.983	0.788	1.13	0.848	1.19	1.26
D fixed	0.55	1.02	0.913	1.22	0.704	0.232	0.153	0.433	0.319
E fixed	0.422	0.622	0.731	0.928	0.452	0.404	0.266	0.885	0.286
F fixed	0.883	0.718	0.749	0.907	0.592	0.592	0.345	0.718	0.788
G fixed	0.986	1.31	1.65	1.43	0.613	0.516	0.679	1.51	0.762
H fixed	0.977	1.06	1	1.15	1.03	0.838	0.658	0.963	0.517
I fixed	0.932	0.434	0.532	0.602	0.402	0.417	0.222	0.593	1.1
K fixed	1.22	1.07	1.11	1.14	2.6	2.73	2.59	1.86	0.788
L fixed	1.1	0.627	0.772	0.675	1.04	0.785	0.28	0.698	2.71
M fixed	1.12	0.71	0.656	0.732	0.886	1.62	0.424	1.13	0.752
N fixed	2.43	2.02	1.44	1.19	1.73	1.06	0.682	0.778	0.634
P fixed	0.399	1.89	2.6	1.42	1.49	0.415	0.992	0.512	1.35
Q fixed	1.42	1.3	1.09	1.28	0.993	2.09	0.981	1.4	1.02
R fixed	1.14	1.01	0.794	0.701	1.71	2.34	6.73	2.16	1.8
V fixed	0.902	0.49	0.592	0.756	0.571	0.73	0.265	0.714	1.62
W fixed	0.759	0.916	0.736	1.01	0.545	0.474	0.438	0.663	0.515
Y fixed	1.02	0.804	0.796	0.889	0.857	0.625	0.443	0.79	0.78
pThr fixed	0.67	0.623	0.888	0.916	0.194	0.233	0.213	0.628	0.39
pTyr fixed	0.699	0.574	0.946	0.864	0.781	0.31	0.215	0.523	0.775

PRKG2, construct: Full length, human (from UniProt Q13237)
relative phosphorylation
Conditions	at +1	at +2	at +3	at +4	at -1	at -2	at -3	at -4	at -5
A fixed	0.876	1.35	1.04	0.834	0.761	0.368	0.816	1.28	1.24
D fixed	0.313	0.408	0.703	0.573	0.421	0.132	0.147	0.472	0.416
E fixed	0.45	0.386	0.697	0.601	0.361	0.113	0.206	0.584	0.415
F fixed	1.34	1.09	0.948	0.919	0.928	0.285	0.477	0.753	0.859
G fixed	0.563	0.911	1.2	1.07	0.529	0.387	0.983	1.23	1.21
H fixed	1.02	1.39	1.42	1.21	1.18	0.662	1.09	0.997	1.05
I fixed	1.56	1.16	0.83	1.01	0.993	0.24	0.337	0.731	0.883
K fixed	1.06	1.21	1.29	1.05	1.78	4.63	2.46	1.74	2.05
L fixed	1.29	0.936	0.943	0.883	1.16	0.321	0.376	0.789	0.745
M fixed	1.36	0.935	0.893	1.1	1.12	0.261	0.412	0.896	0.722
N fixed	0.801	0.765	0.893	1.04	0.921	0.436	0.577	0.766	0.803
P fixed	0.28	0.748	0.932	1.55	1.26	0.349	1.32	1.14	1.07
Q fixed	1.11	0.962	0.924	1.04	0.897	0.465	0.832	0.968	0.836
R fixed	1.41	1.21	1.49	1	1.76	7.58	5.47	2.24	2.01
V fixed	1.9	1.44	0.927	0.937	1.07	0.234	0.399	0.928	0.905
W fixed	0.766	1.01	0.832	1.29	0.66	0.283	0.514	0.762	0.884
Y fixed	0.901	1.09	1.04	0.892	1.2	0.265	0.575	0.716	0.902
pThr fixed	0.816	0.427	0.557	0.911	0.426	0.306	0.471	0.756	0.666
pTyr fixed	0.634	0.543	0.976	0.751	0.502	0.277	0.437	0.502	0.698
